For experiment [1], the target named is CD163 on human blood cells (human) (UniProt Q86VB7). Description: flow cytometry, AF647-labelled antibody, bead-calibrated; CD14+ monocytes, human PBMC, n=5 donors, mean±SD.
For experiment [2] the target is unchanged. Description: flow cytometry, AF647-labelled antibody, bead-calibrated; CD14+ monocytes, human whole blood, n=3 donors, mean±SD. In general terms: In flow cytometry, cells or beads pass a laser one at a time.
The target in experiment [3] is T1, human VISTA on cells (human, UniProt Q9H7M9 33-311).
T1 sequence: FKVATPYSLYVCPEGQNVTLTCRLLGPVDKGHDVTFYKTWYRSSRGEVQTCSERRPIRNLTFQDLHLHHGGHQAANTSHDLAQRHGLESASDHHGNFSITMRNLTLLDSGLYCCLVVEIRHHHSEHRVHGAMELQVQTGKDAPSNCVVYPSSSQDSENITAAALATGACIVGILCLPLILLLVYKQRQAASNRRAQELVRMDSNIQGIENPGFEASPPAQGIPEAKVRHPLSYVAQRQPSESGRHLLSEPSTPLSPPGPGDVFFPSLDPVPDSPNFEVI
Description: flow cytometry, AF488-labelled antibody on CD14+ monocytes of human PBMC, MFI normalised to INX200 at t=0.

For experiment [4], the target named is T1, human VISTA on cells. Description: cell-based or functional assay.
For experiment [5], the target named is T2, hIX50 (human VISTA ECD, produced at Aragen Bioscience) (human, UniProt Q9H7M9 33-194, biotinylated in the pH ELISA (sites not given)).
T2 construct: also called hINX50; soluble VISTA
T2 sequence: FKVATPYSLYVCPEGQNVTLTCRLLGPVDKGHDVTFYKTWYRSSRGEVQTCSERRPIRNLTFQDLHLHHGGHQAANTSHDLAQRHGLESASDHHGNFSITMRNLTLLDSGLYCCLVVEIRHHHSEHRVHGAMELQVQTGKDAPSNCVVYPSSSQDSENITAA
Description: ELISA: hIX50 coated at 1 ug/mL; antibody titrated in PBS/Tween/BSA; mouse anti-human kappa-HRP/TMB; OD 450 nm. (In general: In an ELISA, binding on a coated surface is turned into a signal by an enzyme label.)

Experiment [6] deals with T2, hIX50 (human VISTA ECD, produced at …). Description: ELISA at pH 7.5: INX200 coated at 1 ug/mL; biotinylated hIX50 titrated at 0.001-1000 ng/mL; streptavidin-HRP/TMB; OD 450 nm. The value is a concentration of hIX50.

Sequence of CD163 on human blood cells (human) (Q86VB7 42-1156): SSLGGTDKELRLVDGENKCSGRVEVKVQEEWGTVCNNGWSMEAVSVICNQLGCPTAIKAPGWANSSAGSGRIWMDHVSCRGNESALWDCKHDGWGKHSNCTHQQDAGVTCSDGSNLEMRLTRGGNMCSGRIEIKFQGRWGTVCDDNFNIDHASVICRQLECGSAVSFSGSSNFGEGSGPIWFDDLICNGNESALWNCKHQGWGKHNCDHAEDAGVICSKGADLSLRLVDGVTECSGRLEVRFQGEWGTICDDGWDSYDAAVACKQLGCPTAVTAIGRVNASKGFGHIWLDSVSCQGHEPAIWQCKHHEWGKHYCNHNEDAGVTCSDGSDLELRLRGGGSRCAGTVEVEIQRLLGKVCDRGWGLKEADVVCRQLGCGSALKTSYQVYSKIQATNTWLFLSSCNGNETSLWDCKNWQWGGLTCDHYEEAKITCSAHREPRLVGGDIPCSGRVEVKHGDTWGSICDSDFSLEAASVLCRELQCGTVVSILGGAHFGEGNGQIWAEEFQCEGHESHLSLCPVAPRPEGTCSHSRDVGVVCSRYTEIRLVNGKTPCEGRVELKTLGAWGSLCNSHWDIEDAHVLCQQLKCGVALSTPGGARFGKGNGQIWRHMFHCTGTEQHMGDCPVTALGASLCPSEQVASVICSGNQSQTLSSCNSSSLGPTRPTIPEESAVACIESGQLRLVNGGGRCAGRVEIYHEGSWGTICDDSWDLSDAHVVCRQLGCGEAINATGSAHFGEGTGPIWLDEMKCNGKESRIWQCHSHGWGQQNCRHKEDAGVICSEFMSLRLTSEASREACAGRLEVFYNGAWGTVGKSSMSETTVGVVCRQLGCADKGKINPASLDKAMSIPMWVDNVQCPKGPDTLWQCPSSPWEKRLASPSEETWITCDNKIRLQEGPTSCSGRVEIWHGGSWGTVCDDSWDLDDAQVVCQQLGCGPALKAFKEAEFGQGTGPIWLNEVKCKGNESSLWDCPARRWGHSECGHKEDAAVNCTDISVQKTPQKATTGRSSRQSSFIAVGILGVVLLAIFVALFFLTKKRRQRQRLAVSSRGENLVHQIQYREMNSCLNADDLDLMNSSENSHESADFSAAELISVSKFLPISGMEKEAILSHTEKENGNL

On to “CD163 Alexa Fluor 647 clone GHI/61 (BioLegend) (antibody)”, for which the antibody binding capacity (ABC) (ABC (molecules per cell)) in experiment [1] is 36700; in experiment [2] it was 13100. Human IgG1si (antibody): the nonspecific signal at 0 min relative to INX200 (MFI, percent) with human VISTA on cells [3] turned out to be 5.9%.

B1: INX201J (other)
VH: QVQLVQSGAEVKKPGASVKVSCKASGYTFANYLIGWVRQAPGQRLEWMGDIYPGGGFISYNEKFKGRVTITRDTSASTAYMELSSLRSEDTAVYYCARRFDYGGYFFDYWGQGTLVTVSS
VL: DIVMTQSPLSLPVTPGEPASISCRSSQSIVHSNGNIYLEWYLQKPGQSPQLLIYKVSNRFSGVPDRFSGSGSGTDFTLKISRVEAEDVGVYYCFQGSHVPWTFGQGTKLEIK
modifications: linker/payload INX J on the interchain disulfide cysteines; linker/payload INX J (protease sensitive linker, budesonide analog INX J-2) on the interchain disulfide cysteines, DAR 8.0
Turning to B1, the “FKBP5 transcription (qRT-PCR) in isolated human Tregs, 20 nM payload, against conjugated isotype control” value with human VISTA on cells [4] was determined as 2.1 fold.

B2: INX200 (antibody, human IgG1, V domains shown)
VH: QVQLVQSGAEVKKPGASVKVSCKASGYTFANYLIGWVRQAPGQRLEWMGDIYPGGGFISYNEKFKGRVTITRDTSASTAYMELSSLRSEDTAVYYCARRFDYGGYFFDYWGQGTLVTVSS
VL: DIVMTQSPLSLPVTPGEPASISCRSSQSIVHSNGNIYLEWYLQKPGQSPQLLIYKVSNRFSGVPDRFSGSGSGTDFTLKISRVEAEDVGVYYCFQGSHVPWTFGQGTKLEIK
notes: also called humanized anti-human VISTA antibody on a human IgG1/kappa backbone with L234A/L235A silencing mutations
For orientation: EC50 (read off the curve) means the midpoint of the concentration-response curve. For the molecule B2, the “EC50 (read off the curve)” value was approximately 8 ng/mL in experiment [5] and approximately 0.7 ng/mL in experiment [6].

Source of the values: patent US20250108119A1, “NOVEL STEROID PAYLOADS, STEROID LINKERS, ADCs CONTAINING AND USE THEREOF” (IMMUNEXT, INC., priority 2021, published 2025).
